Test results: publication PMC2649420
Like-named read-outs stand apart in the source and are kept apart here.

Tests used:
Test in all cases: SPR
[1] = target: Sbi-III-IV (amino acids 150-266), domains III and IV of Sbi (S. aureus strain Mu50) (UniProt Q99RL2)
[2] = target: Sbi-IV (amino acids 197-266), domain IV of Sbi (S. aureus strain Mu50) (UniProt Q99RL2)
[3] = target: Sbi-III-IV (amino acids 150-266), domains III and IV of Sbi (S. aureus strain Mu50) (UniProt Q99RL2); remark: listed apart in the source

“C3dg, recombinant (from UniProt P01024 955-1303) (domain or fragment)” gave a Kd [1] of 0.7 µM, a Kd [2] of 0.8 µM and a Kd [3] of 1.4 µM.
